B1: Splicing factor 3A subunit 1 (Homo sapiens), Q15459 (parent)
chain: MPAGPVQAVPPPPPVPTEPKQPTEEEASSKEDSAPSKPVVGIIYPPPEVRNIVDKTASFVARNGPEFEARIRQNEINNPKFNFLNPNDPYHAYYRHKVSEFKEGKAQEPSAAIPKVMQQQQQTTQQQLPQKVQAQVIQETIVPKEPPPEFEFIADPPSISAFDLDVVKLTAQFVARNGRQFLTQLMQKEQRNYQFDFLRPQHSLFNYFTKLVEQYTKILIPPKGLFSKLKKEAENPREVLDQVCYRVEWAKFQERERKKEEEEKEKERVAYAQIDWHDFVVVETVDFQPNEQGNFPPPTTPEELGARILIQERYEKFGESEEVEMEVESDEEDDKQEKAEEPPSQLDQDTQVQDMDEGSDDEEEGQKVPPPPETPMPPPLPPTPDQVIVRKDYDPKASKPLPPAPAPDEYLVSPITGEKIPASKMQEHMRIGLLDPRWLEQRDRSIREKQSDDEVYAPGLDIESSLKQLAERRTDIFGVEETAIGKKIGEEEIQKPEEKVTWDGHSGSMARTQQAAQANITLQEQIEAIHKAKGLVPEDDTKEKIGPSKPNEIPQQPPPPSSATNIPSSAPPITSVPRPPTMPPPVRTTVVSAVPVMPRPPMASVVRLPPGSVIAPMPPIIHAPRINVVPMPPSAPPIMAPRPPPMIVPTAFVPAPPVAPVPAPAPMPPVHPPPPMEDEPTSKKLKTEDSLMPEEEFLRRNKGPVSIKVQVPNMQDKTEWKLNGQVLVFTLPLTDQVSVIKVKIHEATGMPAGKQKLQYEGIFIKDSNSLAYYNMANGAVIHLALKERGGRKK
partner: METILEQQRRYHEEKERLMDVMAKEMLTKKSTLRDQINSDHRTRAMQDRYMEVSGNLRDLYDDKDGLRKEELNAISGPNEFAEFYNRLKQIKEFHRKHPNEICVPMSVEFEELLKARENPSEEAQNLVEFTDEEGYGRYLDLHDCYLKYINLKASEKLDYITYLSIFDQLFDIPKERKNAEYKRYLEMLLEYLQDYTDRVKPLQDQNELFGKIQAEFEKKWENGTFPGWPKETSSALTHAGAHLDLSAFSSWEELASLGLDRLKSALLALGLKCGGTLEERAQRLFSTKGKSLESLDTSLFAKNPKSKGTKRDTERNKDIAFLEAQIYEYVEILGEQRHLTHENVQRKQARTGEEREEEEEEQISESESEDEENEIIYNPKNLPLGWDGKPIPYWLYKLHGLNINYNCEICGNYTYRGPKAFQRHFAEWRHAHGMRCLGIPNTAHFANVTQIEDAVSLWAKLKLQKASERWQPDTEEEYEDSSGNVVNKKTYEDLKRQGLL

Variants of: B1
Details: with sf3a3_human SF3A3, Q12874

| effect of a mutation on the interaction | Variant |
| --- | --- |
| disrupting interaction | L169K |

Variants of: B1
Details: with sf3a3_human SF3A3, Q12874
Remark: another data set of the same source

| effect of a mutation on the interaction | Variant |
| --- | --- |
| increasing interaction | K55L |
